The source of these data is patent publication US20250197482A1.

The target in test [1] is 426C-WITO soluble Env trimer (clade B), stabilized in the prefusion-closed conformation (HIV-1). Description: ELISA, lectin-captured trimer, expression supernatant, single point, OD 450 nm, column 426c-WITO-degly3.
For test [2], the target named is BG505 DS-SOSIP.664 Env trimer (HIV-1). Description: ITC, 37 C, PBS pH 7.4, antibody titrated into trimer.
Test [3] has as its target K169V variant of CAP256 soluble Env trimer (HIV-1). Description: ELISA, lectin-captured trimer, expression supernatant, single point, OD 450 nm.
The target of test [4] is JRFL soluble Env trimer (clade B), stabilized in the prefusion-closed conformation (HIV-1). The description is as above.
For test [5], the target named is CAP256 soluble Env trimer (clade C), stabilized in the prefusion-closed conformation (HIV-1). The description is as above.
Test [6] deals with BG505 DS-SOSIP.664 Env trimer (HIV-1). Description: ITC, 37 C, PBS pH 7.4, nanobody titrated into trimer.

B1: CAP256V2LS (antibody, V domains shown)
VH: QVQLVESGGGVVQPGTSLRLSCAASQFRFDGYGMHWVRQAPGKGLEWVASISHDGIKKYHAEKVWGRFTISRDNSKNTLYLQMNSLRPEDTALYYCAKDLREDECEEWWSDYYDFGAQLPCAKSRGGLVGIADNWGQGTMVTVSS
VL: QSVLTQPPSVSAAPGQKVTISCSGNTSNIGNNFVSWYQQRPGRAPQLLIYETDKRPSGIPDRFSASKSGTSGTLAITGLQTGDEADYYCATWAASLSSARVFGTGTQVIVLG
B1 returned an ELISA binding in test [1] of 0.382. Moreover, in test [2], the -TΔS came out at 15 kcal/mol, the Kd came to 34 nM, the N (stoichiometry) (Antigen Binding Sites per Trimer) worked out at 1 and the ΔG was -10.6 kcal/mol. Moreover, the ΔH in test [2] was -25.6 kcal/mol. Also, in test [3], the ELISA binding was 2.42. Moreover, the ELISA binding in test [4] is 0.361. The molecule also came in with an ELISA binding in test [5] of 2.16.

B2: J3 nanobody (VHH)
VHH: EVQLVESGGGLVQAGGFLRLSCELRGSIFNQYAMAWFRQAPGKEREFVAGMGAVPHYGEFVKGRFTISRDNAKSTVYLQMSSLKPEDTAIYFCARSKSTYISYNSNGYDYWGRGTQVTVSS
In test [6], B2 had a -TΔS of 1.4 kcal/mol, a Kd of 92 nM, a N (stoichiometry) (Antigen Binding Sites per Trimer) of 3.1 and a ΔG of -10 kcal/mol. This molecule also gave a ΔH in test [6] of -11.4 kcal/mol.
